Tests used:
Assay in all cases: PiPER pyrophosphate assay kit, released phosphate
Conditions in all cases: 1 μg purified protein; SE of three replicates
[1] = substrate: Nc1ccn([C@@H]2O[C@H](COP(=O)(O)OP(=O)(O)OP(=O)(O)O)[C@@H](O)[C@H]2O)c(=O)n1; assay type: biochemical, Synechococcus sp. WH 7803
Text: (§1) PiPER pyrophosphate assay kit, released phosphate on Synechococcus sp. WH7803 'large' MazG (Syn MazG)

[2] = substrate: Nc1ccn([C@H]2C[C@H](O)[C@@H](COP(=O)(O)OP(=O)(O)OP(=O)(O)O)O2)c(=O)n1; assay type: biochemical, Synechococcus sp. WH 7803
Text: as §1

[3] = substrate: Nc1nc2c(ncn2[C@@H]2O[C@H](COP(=O)(O)OP(=O)(O)OP(=O)(O)O)[C@@H](O)[C@H]2O)c(=O)[nH]1; assay type: biochemical, Synechococcus sp. WH 7803
Text: as §1

[4] = substrate: Nc1nc2c(ncn2[C@H]2C[C@H](O)[C@@H](COP(=O)(O)OP(=O)(O)OP(=O)(O)O)O2)c(=O)[nH]1; assay type: biochemical, Synechococcus sp. WH 7803
Text: as §1

[5] = substrate: Nc1ncnc2c1ncn2[C@@H]1O[C@H](COP(=O)(O)OP(=O)(O)OP(=O)(O)O)[C@@H](O)[C@H]1O; assay type: biochemical, Synechococcus sp. WH 7803
Text: as §1

[6] = substrate: Nc1ncnc2c1ncn2[C@H]1C[C@H](O)[C@@H](COP(=O)(O)OP(=O)(O)OP(=O)(O)O)O1; assay type: biochemical, Synechococcus sp. WH 7803
Text: as §1

[7] = substrate: O=c1ccn([C@@H]2O[C@H](COP(=O)(O)OP(=O)(O)OP(=O)(O)O)[C@@H](O)[C@H]2O)c(=O)[nH]1; assay type: biochemical, Synechococcus sp. WH 7803
Text: as §1

[8] = substrate: Cc1cn([C@H]2C[C@H](O)[C@@H](COP(=O)(O)OP(=O)(O)OP(=O)(O)O)O2)c(=O)[nH]c1=O; assay type: biochemical, Synechococcus phage S-PM2
Text: (§2) PiPER pyrophosphate assay kit, released phosphate on cyanophage S-PM2 MazG (viral MazG)

[9] = substrate: Nc1ccn([C@@H]2O[C@H](COP(=O)(O)OP(=O)(O)OP(=O)(O)O)[C@@H](O)[C@H]2O)c(=O)n1; assay type: biochemical, Synechococcus phage S-PM2
Text: as §2

[10] = substrate: Nc1ccn([C@H]2C[C@H](O)[C@@H](COP(=O)(O)OP(=O)(O)OP(=O)(O)O)O2)c(=O)n1; assay type: biochemical, Synechococcus phage S-PM2
Text: as §2

[11] = substrate: Nc1nc(O)nc2c1ncn2[C@H]1C[C@H](O)[C@@H](COP(=O)(O)OP(=O)(O)OP(=O)(O)O)O1; assay type: biochemical, Synechococcus phage S-PM2
Text: as §2

[12] = substrate: Nc1nc2c(ncn2[C@H]2C[C@H](O)[C@@H](COP(=O)(O)OP(=O)(O)OP(=O)(O)O)O2)c(=O)[nH]1; assay type: biochemical, Synechococcus phage S-PM2
Text: as §2

[13] = substrate: Nc1ncnc2c1ncn2[C@@H]1O[C@H](COP(=O)(O)OP(=O)(O)OP(=O)(O)O)[C@@H](O)[C@H]1O; assay type: biochemical, Synechococcus phage S-PM2
Text: as §2

[14] = substrate: Nc1ncnc2c1ncn2[C@H]1C[C@H](O)[C@@H](COP(=O)(O)OP(=O)(O)OP(=O)(O)O)O1; assay type: biochemical, Synechococcus phage S-PM2
Text: as §2

[15] = substrate: O=c1ccn([C@@H]2O[C@H](COP(=O)(O)OP(=O)(O)OP(=O)(O)O)[C@@H](O)[C@H]2O)c(=O)[nH]1; assay type: biochemical, Synechococcus phage S-PM2
Text: as §2

[16] = substrate: O=c1ccn([C@H]2C[C@H](O)[C@@H](COP(=O)(O)OP(=O)(O)OP(=O)(O)O)O2)c(=O)[nH]1; assay type: biochemical, Synechococcus phage S-PM2
Text: as §2

B1: Synechococcus sp. WH7803 'large' MazG (Syn MazG) (Synechococcus sp. WH 7803) (protein)
chain: MAQHATVPGDQDPLRYLESVVARLRDPVNGCPWDLEQTHASLVPYVLEEAHEVADAIRHGDDRHLKEELGDLLLQVVLHARIGAENNRFDLDAIATTISDKLIRRHPHVFGEARAENTEAVRLSWEAIKAAERAEQSGGEQSSSPLSDQLAGKVRGQPALAAAMTISRKAAKAGFEWDAIDGVWGKVQEELDELKEAIASGDRRHAQDELGDVLFTLVNVARWCGLDPEEGLAATNQRFLDRFSRVESALNGDLQGRSIQELEALWQQAKAAIRAENTQSS
notes: recombinant, over-expressed in E. coli and purified (tag details only in supplement); two MazG domains
Km [1]: 1.2 (±0.21) mM | Vmax [1]: 1.96 µmol/min/mg | kcat [1]: 2.3 ± 0.164 s⁻¹ | Km [2]: 0.14 (±0.03) mM | Vmax [2]: 3.81 µmol/min/mg | kcat [2]: 4.46 ± 0.417 s⁻¹ | Km [3]: 0.26 (±0.02) mM | Vmax [3]: 0.7 µmol/min/mg | kcat [3]: 0.824 ± 0.153 s⁻¹ | Km [4]: 0.85 (±0.07) mM | Vmax [4]: 0.64 µmol/min/mg | kcat [4]: 0.753 ± 0.293 s⁻¹ | Km [5]: 0.63 (±0.23) mM | Vmax [5]: 2.55 µmol/min/mg | kcat [5]: 2.99 ± 0.407 s⁻¹ | Km [6]: 0.3 (±0.09) mM | Vmax [6]: 1.8 µmol/min/mg | kcat [6]: 2.1 ± 0.323 s⁻¹ | Km [7]: 1.33 (±0.3) mM | Vmax [7]: 3.02 µmol/min/mg | kcat [7]: 3.68 ± 0.1 s⁻¹

B2: cyanophage S-PM2 MazG (viral MazG) (Synechococcus phage S-PM2) (protein)
chain: MSKVNFERYQEFVSEVTSDASTNFVDFADRIGELDREGANIERLLTAGVGINAEGGEFLEIIKKMVFQGKPWNRDNREHLIIELGDIMWYVAQACIALGVSFDDVISGNVKKLEKRYPGGEFDVFYSENRSADDR
notes: recombinant, over-expressed in E. coli, purified by imidazole elution (tag details only in supplement); single MazG domain
Km [8]: 1.23 (±0.06) mM | Vmax [8]: 5.68 µmol/min/mg | kcat [8]: 3.68 ± 0.13 s⁻¹ | Km [9]: 0.85 (±0.11) mM | Vmax [9]: 2.51 µmol/min/mg | kcat [9]: 1.62 ± 0.111 s⁻¹ | Km [10]: 1.16 (±0.04) mM | Vmax [10]: 8.86 µmol/min/mg | kcat [10]: 5.74 ± 0.129 s⁻¹ | Km [11]: 4.86 (±1.13) mM | Vmax [11]: 1.65 µmol/min/mg | kcat [11]: 1.93 ± 0.0658 s⁻¹ | Km [12]: 0.14 (±0.01) mM | Vmax [12]: 10.3 µmol/min/mg | kcat [12]: 6.67 ± 0.165 s⁻¹ | Km [13]: 1.43 (±0.36) mM | Vmax [13]: 2.28 µmol/min/mg | kcat [13]: 1.48 ± 0.157 s⁻¹ | Km [14]: 1.2 (±0.21) mM | Vmax [14]: 1.62 µmol/min/mg | kcat [14]: 1.05 ± 0.124 s⁻¹ | Km [15]: 0.6 (±0.37) mM | Vmax [15]: 3.31 µmol/min/mg | kcat [15]: 2.15 ± 0.119 s⁻¹ | Km [16]: 3.24 (±1.55) mM | Vmax [16]: 4.22 µmol/min/mg | kcat [16]: 4.94 ± 0.395 s⁻¹

— publication PMC6850273, “Cyanophage MazG is a pyrophosphohydrolase but unable to hydrolyse magic spot nucleotides” (Environmental Microbiology Reports, 2019)
